The values below come from patent US20220267452A1 (Chugai, published 2022).

B1: FGA0007 bivalent Ab (FGA0007VH-F760mnN17/FGA0007VL-k0MTC) (antibody, human IgG1, kappa, N297A, V domains shown)
VH: QSVEESGGRLVTPGTPLTLTCTVSGFSLSSYPMSWVRQAPGKGLEWIGIISSSGRTYYASWAKGRFTISKASSTTAALKMTSLTTEDTATYFCARGGVYKYDDYGDYVLNLWGRGTLVTVSS
VL: AIEMTQTPFSVSAAVGGTVTINCQASENIYSNLAWYQQKPGQPPKLLIYAASYLASGVPSRFKGSGSGTDYTLTISGVQCADAATYYCQCTLYSSTYGVAFGGGTEVVVKR
notes: Rabbit-human chimeric bivalent (monospecific) antibody, expressed in Expi293 cells; also called monospecific antibody FGA0007
B2: FGA0005/CD3-TRAB (FGA0005VH-F760mnN17/FGA0005VL-k0MTC//TR01H113-F760mnP17/L0011-k0) (bispecific antibody, human IgG1, kappa, N297A)
heavy 1: QSLEESGGRLVTPGTPLTLTCTASGFSLSTYWICWVRQAPGEGLEWIGYISSSGNTYYASWAKGRFTISKTSSTTVDLKMTSLTTEDTATYFCGGHNSDYITGWALDPWGPGTLVTVSSASTKGPSVFPLAPSSKSTSGGTAALGCLVKDYFPEPVTVSWNSGALTSGVHTFPAVLQSSGLYSLSSVVTVPSSSLGTQTYICNVNHKPSNTKVDKKVEPKSCDKTHTCPPCPAPELRGGPKVFLFPPKPKDTLMISRTPEVTCVVVDVSHEDPEVKFNWYVDGVEVHNAKTKPREEQYASTYRVVSVLTVLHQDWLNGKEYKCKVSNKALPAPIEKTISKAKGQPREPQVYTLPPSREEMTKNQVSLTCLVKGFYPSDIAVEWESNGQPENNYKTTPPYLDSDGSFFLYSKLTVDKSRWQQGNVFSCSVMHEALHNHYTQESLSLSP
light 1: AAVLTQTASPMSAAVGGTVTINCQSSKSVYRDKWLSWFQQKPGQPPKLLIYGASNLASGVSSRFKGSGSGTQFTLTISDVQCDDAATYYCLGGYSDNSEDAFGGGTEVVVKRTVAAPSVFIFPPSDEQLKSGTASVVCLLNNFYPREAKVQWKVDNALQSGNSQESVTEQDSKDCTYSLSSTLTLSKADYEKHKVYACEVTHQGLSSPVTKSFNRGEC
heavy 2: QVQLVESGGGVVQPGGSLRLSCAASGFTFSNAWMHWVRQAPGKGLEWVAQIKDKSQNYATYVAESVKGRFTISRADSKNSIYLQMNSLKTEDTAVYYCRYVHYAAGYGVDIWGQGTTVTVSSASTKGPSVFPLAPSSKSTSGGTAALGCLVKDYFPEPVTVSWNSGALTSGVHTFPAVLQSSGLYSLSSVVTVPSSSLGTQTYICNVNHKPSNTKVDKKVEPKSCDKTHTCPPCPAPELRGGPKVFLFPPKPKDTLMISRTPEVTCVVVDVSHEDPEVKFNWYVDGVEVHNAKTKPREEQYASTYRVVSVLTVLHQDWLNGKEYKCKVSNKALPAPIEKTISKAKGQPREPQVYTLPPSRKEMTKNQVSLTCLVKGFYPSDIAVEWESNGQPENNYKTTPPYLDSDGSFFLYSKLTVDKSRWQQGNVFSCSVMHEALHNHYTQKSLSLSP
light 2: DIVMTQSPLSLPVTPGEPASISCRSSQPLVHSNRNTYLHWYQQKPGQAPRLLIYKVSNRFSGVPDRFSGSGSGTDFTLKISRVEAEDVGVYYCGQGTQVPYTFGQGTKLEIKRTVAAPSVFIFPPSDEQLKSGTASVVCLLNNFYPREAKVQWKVDNALQSGNSQESVTEQDSKDSTYSLSSTLTLSKADYEKHKVYACEVTHQGLSSPVTKSFNRGEC
notes: Made by Fab-arm exchange (2-MEA) of the bivalent FGA0005 antibody and the anti-CD3 antibody; also called bispecific antibody FGA0005/CD3-TRAB
B3: FGA0007/CD3-TRAB (FGA0007VH-F760mnN17/FGA0007VL-k0MTC//TR01H113-F760mnP17/L0011-k0) (bispecific antibody, human IgG1, kappa, N297A)
heavy 1: QSVEESGGRLVTPGTPLTLTCTVSGFSLSSYPMSWVRQAPGKGLEWIGIISSSGRTYYASWAKGRFTISKASSTTAALKMTSLTTEDTATYFCARGGVYKYDDYGDYVLNLWGRGTLVTVSSASTKGPSVFPLAPSSKSTSGGTAALGCLVKDYFPEPVTVSWNSGALTSGVHTFPAVLQSSGLYSLSSVVTVPSSSLGTQTYICNVNHKPSNTKVDKKVEPKSCDKTHTCPPCPAPELRGGPKVFLFPPKPKDTLMISRTPEVTCVVVDVSHEDPEVKFNWYVDGVEVHNAKTKPREEQYASTYRVVSVLTVLHQDWLNGKEYKCKVSNKALPAPIEKTISKAKGQPREPQVYTLPPSREEMTKNQVSLTCLVKGFYPSDIAVEWESNGQPENNYKTTPPYLDSDGSFFLYSKLTVDKSRWQQGNVFSCSVMHEALHNHYTQESLSLSP
light 1: AIEMTQTPFSVSAAVGGTVTINCQASENIYSNLAWYQQKPGQPPKLLIYAASYLASGVPSRFKGSGSGTDYTLTISGVQCADAATYYCQCTLYSSTYGVAFGGGTEVVVKRTVAAPSVFIFPPSDEQLKSGTASVVCLLNNFYPREAKVQWKVDNALQSGNSQESVTEQDSKDCTYSLSSTLTLSKADYEKHKVYACEVTHQGLSSPVTKSFNRGEC
heavy 2: B2 heavy 2
light 2: B2 light 2
notes: Made by Fab-arm exchange (2-MEA); also called bispecific antibody FGA0007/CD3-TRAB
B4: FGA0005 bivalent Ab (FGA0005VH-F760mnN17/FGA0005VL-k0MTC) (antibody, human IgG1, kappa, N297A, V domains shown)
VH: QSLEESGGRLVTPGTPLTLTCTASGFSLSTYWICWVRQAPGEGLEWIGYISSSGNTYYASWAKGRFTISKTSSTTVDLKMTSLTTEDTATYFCGGHNSDYITGWALDPWGPGTLVTVSS
VL: AAVLTQTASPMSAAVGGTVTINCQSSKSVYRDKWLSWFQQKPGQPPKLLIYGASNLASGVSSRFKGSGSGTQFTLTISDVQCDDAATYYCLGGYSDNSEDAFGGGTEVVVKR
notes: Rabbit-human chimeric bivalent (monospecific) antibody, expressed in Expi293 cells; also called monospecific antibody FGA0005

The target in the assay is T1, wild-type human FGFR3 (hFGFR3 protein, SEQ ID NO: 1) (human, UniProt P22607 23-804).
T1 construct: Full-length cDNA expressed in CHO DXB11s cells; The construct used in PC10/FGFR3 WT cells is not described; also called FGFR3 WT; wild-type hFGFR3
T1 sequence (P22607 other isoform, or with tags, fused parts or gaps): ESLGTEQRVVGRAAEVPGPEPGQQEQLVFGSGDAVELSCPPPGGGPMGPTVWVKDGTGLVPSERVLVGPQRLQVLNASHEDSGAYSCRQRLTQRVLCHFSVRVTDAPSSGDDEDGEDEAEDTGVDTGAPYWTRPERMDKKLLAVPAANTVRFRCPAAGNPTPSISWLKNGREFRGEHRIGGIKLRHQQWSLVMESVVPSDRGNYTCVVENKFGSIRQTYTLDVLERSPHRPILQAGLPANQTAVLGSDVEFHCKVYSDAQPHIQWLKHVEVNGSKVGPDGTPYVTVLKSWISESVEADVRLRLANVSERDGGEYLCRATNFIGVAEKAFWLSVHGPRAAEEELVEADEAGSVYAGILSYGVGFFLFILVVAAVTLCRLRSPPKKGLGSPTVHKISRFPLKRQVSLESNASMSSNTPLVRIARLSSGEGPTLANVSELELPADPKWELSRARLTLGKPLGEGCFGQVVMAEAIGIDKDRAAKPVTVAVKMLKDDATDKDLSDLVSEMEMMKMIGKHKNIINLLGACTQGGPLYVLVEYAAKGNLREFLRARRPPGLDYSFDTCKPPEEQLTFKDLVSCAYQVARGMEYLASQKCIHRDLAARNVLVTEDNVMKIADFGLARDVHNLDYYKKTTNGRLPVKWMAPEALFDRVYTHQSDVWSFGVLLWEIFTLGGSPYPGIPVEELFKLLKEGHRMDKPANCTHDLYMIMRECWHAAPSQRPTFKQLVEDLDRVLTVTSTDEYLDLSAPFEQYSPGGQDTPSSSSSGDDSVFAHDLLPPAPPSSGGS
In words: flow cytometry on hFGFR3/CHO DXB11s cells. Here is the method: The binding activity of monospecific antibodies FGA0005 and FGA0007 and bispecific antibodies FGA0005/CD3-TRAB and FGA0007/CD3-TRAB against wild-type hFGFR3 or hFGFR3 S249C mutant on the cell surface of hFGFR3/CHO DXB11s cells and hFGFR3 S249C/CHO DXB11s cells prepared by the method described in Example 1 and parent strain CHO DXB11s cells was measured using flow cytometry.
After 9×10⁶ cells of each cell line were washed with FACS/PBS supplemented with 0.5% BSA, 450 μL of Fixable Viability Dye 780 (eBioscience) diluted 5000 times was added to each of the cells. 25 μL each of the prepared cell suspensions was dispensed into v-bottom 96 well plates (Greiner Bio-one). Monospecific antibodies FGA0005 and FGA0007 with twice the final concentration of 0.01, 0.1, 1 μg/mL were prepared. In addition, bispecific antibodies FGA0005/CD3-TRAB and FGA0007/CD3-TRAB with twice the final concentration of 5, 10, and 20 μg/mL were prepared. 25 μL solutions containing the monospecific antibodies FGA0005 bivalent Ab and FGA0007 bivalent Ab, and the bispecific antibodies FGA0005/CD3-TRAB and FGA0007/CD3-TRAB prepared at a double concentration were added to the v-bottom 96 well plates, and allowed to stand at 4° C. for 30 minutes. After the cells were washed with FACS/PBS, Goat anti-Human IgG Fc Cross-Adsorbed Secondary Antibody, Dylight 650 Conjugate (Invitrogen) diluted 100-fold with FACS/PBS was added at 50 μL each and left to stand at 4° C. for 30 minutes. Cells were washed with FACS/PBS and then analyzed by flow cytometry.
Turning to B1, the binding result was “no binding (tested: 0.01, 0.1, 1 µg/mL)”.
With B2, the binding result was “no binding (tested: 5, 10, and 20 µg/mL)”.
As for B3, the binding result was “no binding (tested: 5, 10, and 20 µg/mL)”.
B4: the binding result was “no binding (tested: 0.01, 0.1, 1 µg/mL)”.
